{"source": "patent US12679878B2", "about": "“CRF2 receptor agonists and their use in therapy” (SANOFI, priority 2020, dated 2026)", "target": "T1, CRF1R receptor (anti-target) (UniProt P34998 24-415, limits assumed)", "T1 sequence (looked up)": "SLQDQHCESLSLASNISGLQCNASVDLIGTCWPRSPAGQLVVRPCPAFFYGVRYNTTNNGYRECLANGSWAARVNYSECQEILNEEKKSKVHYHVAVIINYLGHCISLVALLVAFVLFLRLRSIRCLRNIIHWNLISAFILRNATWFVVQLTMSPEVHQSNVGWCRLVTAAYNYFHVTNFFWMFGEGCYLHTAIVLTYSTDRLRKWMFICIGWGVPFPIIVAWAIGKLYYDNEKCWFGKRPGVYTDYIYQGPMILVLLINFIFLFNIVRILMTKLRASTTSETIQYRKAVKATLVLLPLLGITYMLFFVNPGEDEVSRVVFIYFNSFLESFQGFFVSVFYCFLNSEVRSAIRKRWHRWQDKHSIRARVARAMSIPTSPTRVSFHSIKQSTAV", "experiment": "cell-based or functional assay", "note": "Starred links: 1 amine or outer side, 2 acyl side, 3 side chain; linkers in the order of their positions; H or OH if unused. Non-standard residues stand in square brackets, D forms with d. Groups on a side chain read outwards from the residue. No end group written: not given here. *: point of attachment. C18 diacid = O=C(O)CCCCCCCCCCCCCCCCC(=O)*; γGlu = O=C(O)[C@H](CCC(=O)[*:2])N[*:1]; Palmitoyl = CCCCCCCCCCCCCCCC(=O)*; AEEA = NCCOCCOCC(=O)O; Aib = CC(C)(N)C(=O)O", "data": [{"binder": "IVLSLD[dV]PTKLK([γGlu-Palmitoyl])KKLLKQERKRKEREKAEKAARILERV-NH2 (N-terminus assumed; SMILES CCCCCCCCCCCCCCCC(=O)N[C@@H](CCC(=O)NCCCC[C@H](NC(=O)[C@H](CC(C)C)NC(=O)[C@H](CCCCN)NC(=O)[C@@H](NC(=O)[C@@H]1CCCN1C(=O)[C@H](NC(=O)[C@H](CC(=O)O)NC(=O)[C@H](CC(C)C)NC(=O)[C@H](CO)NC(=O)[C@H](CC(C)C)NC(=O)[C@@H](NC(=O)[C@@H](N)[C@@H](C)CC)C(C)C)C(C)C)[C@@H](C)O)C(=O)N[C@@H](CCCCN)C(=O)N[C@@H](CCCCN)C(=O)N[C@@H](CC(C)C)C(=O)N[C@@H](CC(C)C)C(=O)N[C@@H](CCCCN)C(=O)N[C@@H](CCC(N)=O)C(=O)N[C@@H](CCC(=O)O)C(=O)N[C@@H](CCCNC(=N)N)C(=O)N[C@@H](CCCCN)C(=O)N[C@@H](CCCNC(=N)N)C(=O)N[C@@H](CCCCN)C(=O)N[C@@H](CCC(=O)O)C(=O)N[C@@H](CCCNC(=N)N)C(=O)N[C@@H](CCC(=O)O)C(=O)N[C@@H](CCCCN)C(=O)N[C@@H](C)C(=O)N[C@@H](CCC(=O)O)C(=O)N[C@@H](CCCCN)C(=O)N[C@@H](C)C(=O)N[C@@H](C)C(=O)N[C@@H](CCCNC(=N)N)C(=O)N[C@H](C(=O)N[C@@H](CC(C)C)C(=O)N[C@@H](CCC(=O)O)C(=O)N[C@@H](CCCNC(=N)N)C(=O)N[C@H](C(N)=O)C(C)C)[C@@H](C)CC)C(=O)O)", "note": "[peptide of SEQ ID NO: 28]", "values": [{"measurement": "EC50 [nM] 0% HSA (cAMP, HTRF)", "result": "> 100", "unit": "nM"}, {"measurement": "Emax (%) (100% = Sauvagine at 100 nM)", "result": 8.4, "unit": "%"}]}, {"binder": "IVLSLD[dV]PTKLK([γGlu-Palmitoyl])KKLLKQERKRKEREQAEKAARILERV-NH2 (N-terminus assumed; SMILES CCCCCCCCCCCCCCCC(=O)N[C@@H](CCC(=O)NCCCC[C@H](NC(=O)[C@H](CC(C)C)NC(=O)[C@H](CCCCN)NC(=O)[C@@H](NC(=O)[C@@H]1CCCN1C(=O)[C@H](NC(=O)[C@H](CC(=O)O)NC(=O)[C@H](CC(C)C)NC(=O)[C@H](CO)NC(=O)[C@H](CC(C)C)NC(=O)[C@@H](NC(=O)[C@@H](N)[C@@H](C)CC)C(C)C)C(C)C)[C@@H](C)O)C(=O)N[C@@H](CCCCN)C(=O)N[C@@H](CCCCN)C(=O)N[C@@H](CC(C)C)C(=O)N[C@@H](CC(C)C)C(=O)N[C@@H](CCCCN)C(=O)N[C@@H](CCC(N)=O)C(=O)N[C@@H](CCC(=O)O)C(=O)N[C@@H](CCCNC(=N)N)C(=O)N[C@@H](CCCCN)C(=O)N[C@@H](CCCNC(=N)N)C(=O)N[C@@H](CCCCN)C(=O)N[C@@H](CCC(=O)O)C(=O)N[C@@H](CCCNC(=N)N)C(=O)N[C@@H](CCC(=O)O)C(=O)N[C@@H](CCC(N)=O)C(=O)N[C@@H](C)C(=O)N[C@@H](CCC(=O)O)C(=O)N[C@@H](CCCCN)C(=O)N[C@@H](C)C(=O)N[C@@H](C)C(=O)N[C@@H](CCCNC(=N)N)C(=O)N[C@H](C(=O)N[C@@H](CC(C)C)C(=O)N[C@@H](CCC(=O)O)C(=O)N[C@@H](CCCNC(=N)N)C(=O)N[C@H](C(N)=O)C(C)C)[C@@H](C)CC)C(=O)O)", "note": "[peptide of SEQ ID NO: 30]", "values": [{"measurement": "EC50 [nM] 0% HSA (cAMP, HTRF)", "result": "> 100", "unit": "nM"}, {"measurement": "Emax (%) (100% = Sauvagine at 100 nM)", "result": 14.5, "unit": "%"}]}, {"binder": "IVLSLD[dV]PTKLK([γGlu-Palmitoyl])KKLLKQERKRKERE[Aib]AEKNARILERV-NH2 (N-terminus assumed; SMILES CCCCCCCCCCCCCCCC(=O)N[C@@H](CCC(=O)NCCCC[C@H](NC(=O)[C@H](CC(C)C)NC(=O)[C@H](CCCCN)NC(=O)[C@@H](NC(=O)[C@@H]1CCCN1C(=O)[C@H](NC(=O)[C@H](CC(=O)O)NC(=O)[C@H](CC(C)C)NC(=O)[C@H](CO)NC(=O)[C@H](CC(C)C)NC(=O)[C@@H](NC(=O)[C@@H](N)[C@@H](C)CC)C(C)C)C(C)C)[C@@H](C)O)C(=O)N[C@@H](CCCCN)C(=O)N[C@@H](CCCCN)C(=O)N[C@@H](CC(C)C)C(=O)N[C@@H](CC(C)C)C(=O)N[C@@H](CCCCN)C(=O)N[C@@H](CCC(N)=O)C(=O)N[C@@H](CCC(=O)O)C(=O)N[C@@H](CCCNC(=N)N)C(=O)N[C@@H](CCCCN)C(=O)N[C@@H](CCCNC(=N)N)C(=O)N[C@@H](CCCCN)C(=O)N[C@@H](CCC(=O)O)C(=O)N[C@@H](CCCNC(=N)N)C(=O)N[C@@H](CCC(=O)O)C(=O)NC(C)(C)C(=O)N[C@@H](C)C(=O)N[C@@H](CCC(=O)O)C(=O)N[C@@H](CCCCN)C(=O)N[C@@H](CC(N)=O)C(=O)N[C@@H](C)C(=O)N[C@@H](CCCNC(=N)N)C(=O)N[C@H](C(=O)N[C@@H](CC(C)C)C(=O)N[C@@H](CCC(=O)O)C(=O)N[C@@H](CCCNC(=N)N)C(=O)N[C@H](C(N)=O)C(C)C)[C@@H](C)CC)C(=O)O)", "note": "[peptide of SEQ ID NO: 26]", "values": [{"measurement": "EC50 [nM] 0% HSA (cAMP, HTRF)", "result": "> 100", "unit": "nM"}, {"measurement": "Emax (%) (100% = Sauvagine at 100 nM)", "result": 0.6, "unit": "%"}]}, {"binder": "IVLSLD[dV]PTKLK([γGlu-Palmitoyl])KKLLKQERKRKERE[Aib]AEKAARILERV-NH2 (N-terminus assumed; SMILES CCCCCCCCCCCCCCCC(=O)N[C@@H](CCC(=O)NCCCC[C@H](NC(=O)[C@H](CC(C)C)NC(=O)[C@H](CCCCN)NC(=O)[C@@H](NC(=O)[C@@H]1CCCN1C(=O)[C@H](NC(=O)[C@H](CC(=O)O)NC(=O)[C@H](CC(C)C)NC(=O)[C@H](CO)NC(=O)[C@H](CC(C)C)NC(=O)[C@@H](NC(=O)[C@@H](N)[C@@H](C)CC)C(C)C)C(C)C)[C@@H](C)O)C(=O)N[C@@H](CCCCN)C(=O)N[C@@H](CCCCN)C(=O)N[C@@H](CC(C)C)C(=O)N[C@@H](CC(C)C)C(=O)N[C@@H](CCCCN)C(=O)N[C@@H](CCC(N)=O)C(=O)N[C@@H](CCC(=O)O)C(=O)N[C@@H](CCCNC(=N)N)C(=O)N[C@@H](CCCCN)C(=O)N[C@@H](CCCNC(=N)N)C(=O)N[C@@H](CCCCN)C(=O)N[C@@H](CCC(=O)O)C(=O)N[C@@H](CCCNC(=N)N)C(=O)N[C@@H](CCC(=O)O)C(=O)NC(C)(C)C(=O)N[C@@H](C)C(=O)N[C@@H](CCC(=O)O)C(=O)N[C@@H](CCCCN)C(=O)N[C@@H](C)C(=O)N[C@@H](C)C(=O)N[C@@H](CCCNC(=N)N)C(=O)N[C@H](C(=O)N[C@@H](CC(C)C)C(=O)N[C@@H](CCC(=O)O)C(=O)N[C@@H](CCCNC(=N)N)C(=O)N[C@H](C(N)=O)C(C)C)[C@@H](C)CC)C(=O)O)", "note": "[peptide of SEQ ID NO: 29]", "values": [{"measurement": "EC50 [nM] 0% HSA (cAMP, HTRF)", "result": "> 100", "unit": "nM"}, {"measurement": "Emax (%) (100% = Sauvagine at 100 nM)", "result": 18.4, "unit": "%"}]}, {"binder": "IVLSLDVPIKLK([AEEA-AEEA-γGlu-C18 diacid])QILLKQERQKKQREKAKTN[Aib]QILAQV-NH2 (N-terminus assumed; SMILES CC[C@H](C)[C@H](N)C(=O)N[C@H](C(=O)N[C@@H](CC(C)C)C(=O)N[C@@H](CO)C(=O)N[C@@H](CC(C)C)C(=O)N[C@@H](CC(=O)O)C(=O)N[C@H](C(=O)N1CCC[C@H]1C(=O)N[C@H](C(=O)N[C@@H](CCCCN)C(=O)N[C@@H](CC(C)C)C(=O)N[C@@H](CCCCNC(=O)COCCOCCNC(=O)COCCOCCNC(=O)CC[C@H](NC(=O)CCCCCCCCCCCCCCCCC(=O)O)C(=O)O)C(=O)N[C@@H](CCC(N)=O)C(=O)N[C@H](C(=O)N[C@@H](CC(C)C)C(=O)N[C@@H](CC(C)C)C(=O)N[C@@H](CCCCN)C(=O)N[C@@H](CCC(N)=O)C(=O)N[C@@H](CCC(=O)O)C(=O)N[C@@H](CCCNC(=N)N)C(=O)N[C@@H](CCC(N)=O)C(=O)N[C@@H](CCCCN)C(=O)N[C@@H](CCCCN)C(=O)N[C@@H](CCC(N)=O)C(=O)N[C@@H](CCCNC(=N)N)C(=O)N[C@@H](CCC(=O)O)C(=O)N[C@@H](CCCCN)C(=O)N[C@@H](C)C(=O)N[C@@H](CCCCN)C(=O)N[C@H](C(=O)N[C@@H](CC(N)=O)C(=O)NC(C)(C)C(=O)N[C@@H](CCC(N)=O)C(=O)N[C@H](C(=O)N[C@@H](CC(C)C)C(=O)N[C@@H](C)C(=O)N[C@@H](CCC(N)=O)C(=O)N[C@H](C(N)=O)C(C)C)[C@@H](C)CC)[C@@H](C)O)[C@@H](C)CC)[C@@H](C)CC)C(C)C)C(C)C)", "note": "[peptide of SEQ ID NO: 88]", "values": [{"measurement": "EC50 [nM] 0% HSA (cAMP, HTRF)", "result": "> 100", "unit": "nM"}, {"measurement": "Emax (%) (100% = Sauvagine at 100 nM)", "result": 2.3, "unit": "%"}]}, {"binder": "IVLSLD[dV]PTKLK([γGlu-Palmitoyl])KKLLKQERKRKEREQAEKNARILERV-NH2 (N-terminus assumed; SMILES CCCCCCCCCCCCCCCC(=O)N[C@@H](CCC(=O)NCCCC[C@H](NC(=O)[C@H](CC(C)C)NC(=O)[C@H](CCCCN)NC(=O)[C@@H](NC(=O)[C@@H]1CCCN1C(=O)[C@H](NC(=O)[C@H](CC(=O)O)NC(=O)[C@H](CC(C)C)NC(=O)[C@H](CO)NC(=O)[C@H](CC(C)C)NC(=O)[C@@H](NC(=O)[C@@H](N)[C@@H](C)CC)C(C)C)C(C)C)[C@@H](C)O)C(=O)N[C@@H](CCCCN)C(=O)N[C@@H](CCCCN)C(=O)N[C@@H](CC(C)C)C(=O)N[C@@H](CC(C)C)C(=O)N[C@@H](CCCCN)C(=O)N[C@@H](CCC(N)=O)C(=O)N[C@@H](CCC(=O)O)C(=O)N[C@@H](CCCNC(=N)N)C(=O)N[C@@H](CCCCN)C(=O)N[C@@H](CCCNC(=N)N)C(=O)N[C@@H](CCCCN)C(=O)N[C@@H](CCC(=O)O)C(=O)N[C@@H](CCCNC(=N)N)C(=O)N[C@@H](CCC(=O)O)C(=O)N[C@@H](CCC(N)=O)C(=O)N[C@@H](C)C(=O)N[C@@H](CCC(=O)O)C(=O)N[C@@H](CCCCN)C(=O)N[C@@H](CC(N)=O)C(=O)N[C@@H](C)C(=O)N[C@@H](CCCNC(=N)N)C(=O)N[C@H](C(=O)N[C@@H](CC(C)C)C(=O)N[C@@H](CCC(=O)O)C(=O)N[C@@H](CCCNC(=N)N)C(=O)N[C@H](C(N)=O)C(C)C)[C@@H](C)CC)C(=O)O)", "note": "[peptide of SEQ ID NO: 27]", "values": [{"measurement": "EC50 [nM] 0% HSA (cAMP, HTRF)", "result": "> 100", "unit": "nM"}, {"measurement": "Emax (%) (100% = Sauvagine at 100 nM)", "result": 34.2, "unit": "%"}]}]}
